Article doi:10.1101/2023.07.25.550453 (bioRxiv, 2023)
Like-named read-outs stand apart in the source and are kept apart here. One block for each molecule: values may come before it.

B4: CBP20 (NCBP2), human (natural protein)
chain: MSGGLLKALRSDSYVELSQYRDQHFRGDNEEQEKLLKKSCTLYVGNLSFYTTEEQIYELFSKSGDIKKIIMGLDKMKKTACGFCFVEYYSRADAENAMRYINGTRLDDRIIRTDWDAGFKEGRQYGRGRSGGQVRDEYRQDYDAGRGGYGKLAQNQ

What was measured:
[1] = biological target: ZC3H18 double ARM motif peptide, biotinylated (human); assay: BLI
[2] = biological target: PHAX^1-18 peptide (ARM 9-EDGQL), biotinylated (human) (UniProt Q9H814); assay: BLI
[3] = biological target: ARS2^147-871 (human); assay: ITC
[4] = biological target: T1, nuclear cap-binding complex (CBC: CBP80ΔNLS + CBP20), human (human, UniProt Q09161 20-790; P52298 1-156); assay: SPR
T1 sequence 1: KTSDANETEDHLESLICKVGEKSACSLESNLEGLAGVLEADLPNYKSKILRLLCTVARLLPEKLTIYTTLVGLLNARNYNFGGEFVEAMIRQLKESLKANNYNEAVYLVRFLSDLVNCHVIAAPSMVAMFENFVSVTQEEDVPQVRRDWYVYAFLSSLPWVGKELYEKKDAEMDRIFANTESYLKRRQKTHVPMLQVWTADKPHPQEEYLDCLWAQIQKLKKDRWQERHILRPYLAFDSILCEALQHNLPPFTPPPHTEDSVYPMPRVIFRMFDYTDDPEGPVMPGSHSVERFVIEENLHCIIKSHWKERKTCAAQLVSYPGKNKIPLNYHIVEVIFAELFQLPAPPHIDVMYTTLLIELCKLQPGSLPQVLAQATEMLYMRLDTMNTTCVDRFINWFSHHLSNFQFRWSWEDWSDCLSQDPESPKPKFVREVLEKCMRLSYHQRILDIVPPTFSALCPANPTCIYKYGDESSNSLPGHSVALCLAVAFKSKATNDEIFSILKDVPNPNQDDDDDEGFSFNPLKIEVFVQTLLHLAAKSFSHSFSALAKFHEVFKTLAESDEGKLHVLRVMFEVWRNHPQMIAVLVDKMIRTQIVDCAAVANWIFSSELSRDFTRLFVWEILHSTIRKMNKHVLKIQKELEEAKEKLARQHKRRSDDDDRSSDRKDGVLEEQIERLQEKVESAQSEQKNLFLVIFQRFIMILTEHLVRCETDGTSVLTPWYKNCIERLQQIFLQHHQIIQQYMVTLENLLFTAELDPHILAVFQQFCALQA
T1 sequence 2: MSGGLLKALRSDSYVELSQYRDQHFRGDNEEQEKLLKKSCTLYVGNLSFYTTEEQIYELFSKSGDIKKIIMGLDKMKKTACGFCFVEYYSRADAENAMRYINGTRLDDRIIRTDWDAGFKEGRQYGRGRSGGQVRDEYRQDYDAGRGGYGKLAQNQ

[5] = biological target: T1, nuclear cap-binding complex (CBC: …); assay: ITC
[6] = biological target: T1, nuclear cap-binding complex (CBC: …); assay: ITC; remark: listed apart in the source
[7] = biological target: T1, nuclear cap-binding complex (CBC: …); assay: ITC; remark: listed apart in the source
[8] = biological target: B4; assay: cryo-EM structure
[9] = biological target: T2, CBP80ΔNLS (NCBP1), human (human, UniProt Q09161 20-790); assay: cryo-EM structure
T2 sequence (looked up): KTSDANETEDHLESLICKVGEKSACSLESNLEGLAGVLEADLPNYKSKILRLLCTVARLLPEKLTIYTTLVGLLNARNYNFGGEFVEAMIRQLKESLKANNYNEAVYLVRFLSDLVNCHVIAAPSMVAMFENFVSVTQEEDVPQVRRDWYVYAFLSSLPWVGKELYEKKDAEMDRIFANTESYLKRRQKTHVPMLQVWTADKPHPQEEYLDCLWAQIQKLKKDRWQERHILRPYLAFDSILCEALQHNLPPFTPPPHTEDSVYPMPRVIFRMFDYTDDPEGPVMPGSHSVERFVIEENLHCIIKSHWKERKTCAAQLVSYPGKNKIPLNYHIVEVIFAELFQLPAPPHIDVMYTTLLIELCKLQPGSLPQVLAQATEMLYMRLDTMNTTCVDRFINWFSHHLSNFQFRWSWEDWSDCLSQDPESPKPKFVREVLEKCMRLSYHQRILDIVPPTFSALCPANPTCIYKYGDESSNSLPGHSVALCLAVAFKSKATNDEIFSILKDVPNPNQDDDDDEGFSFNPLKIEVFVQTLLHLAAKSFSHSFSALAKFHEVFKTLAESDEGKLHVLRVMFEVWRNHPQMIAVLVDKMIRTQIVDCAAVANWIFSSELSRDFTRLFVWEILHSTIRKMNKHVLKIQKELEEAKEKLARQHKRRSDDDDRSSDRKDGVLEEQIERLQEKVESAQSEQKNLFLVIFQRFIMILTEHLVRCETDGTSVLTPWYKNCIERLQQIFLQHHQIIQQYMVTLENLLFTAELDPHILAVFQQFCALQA

[10] = biological target: full-length PHAX (human, UniProt Q9H814 1-394); assay: cryo-EM structure
[11] = biological target: ARS2^147-871 (human); assay: ITC; remark: listed apart in the source
[12] = biological target: T1, nuclear cap-binding complex (CBC: …); assay: pull-down
[13] = biological target: CBP80 (delta NLS);CBP20;PHAX (human;human;human, UniProt Q09161;P52298;Q9H814 20-790;1-156;1-394, del1-19||); assay: cryo-EM
Sequence of CBP80 (delta NLS);CBP20;PHAX (Q9H814 whole entry, stated change not applied, one chain of several): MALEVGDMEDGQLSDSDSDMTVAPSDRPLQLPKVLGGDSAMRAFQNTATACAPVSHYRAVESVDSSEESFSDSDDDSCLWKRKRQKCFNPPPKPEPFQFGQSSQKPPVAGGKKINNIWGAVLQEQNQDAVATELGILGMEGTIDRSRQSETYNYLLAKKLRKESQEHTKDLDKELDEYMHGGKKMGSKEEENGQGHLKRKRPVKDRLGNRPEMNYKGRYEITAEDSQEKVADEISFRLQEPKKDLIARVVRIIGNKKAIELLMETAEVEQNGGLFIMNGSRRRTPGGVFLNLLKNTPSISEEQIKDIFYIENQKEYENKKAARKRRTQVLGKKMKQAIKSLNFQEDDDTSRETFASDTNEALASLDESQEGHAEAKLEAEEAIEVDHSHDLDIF

Sequence of full-length PHAX (human, UniProt Q9H814 1-394) (Q9H814 whole entry): as the sequence (Q9H814 whole entry, stated change not applied, one chain of several) above

Kd [1]: 7700 nM
Kd [2]: 6100 nM
Molecule: ARS2^147-871 (domain or fragment)

Kd [3]: 4100 nM
Molecule: full-length PHAX (from UniProt Q9H814 1-394) (natural protein)

Kd [5]: 222 nM
Molecule: TKKVDHRAPGAEEDDSELQRAWGALIKEKEQSRQKKSR (domain or fragment, human, UniProt Q53F19 560-597, looked up) [NCBP3^560-620 with C-terminal residues 598-620 removed]

Kd [6]: ~115 nM
Kd [7]: ~173 nM
B2: His-MBP-NCBP3^560-620 (domain or fragment, human, UniProt Q53F19 560-620, looked up)
chain: TKKVDHRAPGAEEDDSELQRAWGALIKEKEQSRQKKSRLDNLPSLQIEVSRESSSGSEAES

binding result [8]: binds
B3: NCBP3^560-620 (tag cleaved, cryo-EM sample) (domain or fragment, human, UniProt Q53F19 560-620, looked up)
chain: TKKVDHRAPGAEEDDSELQRAWGALIKEKEQSRQKKSRLDNLPSLQIEVSRESSSGSEAES

Kd [11]: 3500 nM
Molecule: KESLEAAKEKKKEDDDGEIDDGEIDDDDLEEGEVKDPSD (domain or fragment) [MBP-ZC3H18^177-215]

Kd [11]: 700 nM
B5: MBP-ZC3H18^117-258 (domain or fragment)
chain: SSVTRELDEHELDYDEEVPEEPAPAVQEDEAEKAGAEDDEEKGEGTPREEGKAGVQSVGEKESLEAAKEKKKEDDDGEIDDGEIDDDDLEEGEVKDPSDRKVRPRPTCRFFMKGNCTWGMNCRFIHPGVNDKGNYSLITKAD

Second part, the molecule before the results:

Molecule: ESAWERGLRHAKEVLKKATIRKEQEPDFEEKRFTVTIGEDER (domain or fragment, human, UniProt Q86VM9 298-339, looked up) [His-MBP-ZC3H18^298-339]
Kd [4]: 150 nM

B1: His-MBP-PHAX^103-196 (domain or fragment, human, UniProt Q9H814 103-196, looked up)
chain: SQKPPVAGGKKINNIWGAVLQEQNQDAVATELGILGMEGTIDRSRQSETYNYLLAKKLRKESQEHTKDLDKELDEYMHGGKKMGSKEEENGQGH
Kd [6]: 2400 nM

Molecule: B4
binding result [9]: binds
binding result [10]: binds

B6: His-MBP-NCBP3^360-620 (domain or fragment, human, UniProt Q53F19 360-620, looked up)
chain: DQDMDADDRVVVEYHEELPALKQPRERSASRRSSASSSDSDEMDYDLELKMISTPSPKKSMKMTMYADEVESQLKNIRNSMRADSVSSSNIKNRIGNKLPPEKFADVRHLLDEKRQHSRPRPPVSSTKSDIRQRLGKRPHSPEKAFSSNPVVRREPSSDVHSRLGVPRQDSKGLYADTREKKSGNLWTRLGSAPKTKEKNTKKVDHRAPGAEEDDSELQRAWGALIKEKEQSRQKKSRLDNLPSLQIEVSRESSSGSEAES
binding result [12]: binds

B7: NELF-E^244-380 (domain or fragment, human, UniProt P18615 244-380, looked up)
chain: GPFRRSDSFPERRAPRKGNTLYVYGEDMTPTLLRGAFSPFGNIIDLSMDPPRNCAFVTYEKMESADQAVAELNGTQVESVQLKVNIARKQPMLDAATGKSVWGSLAVQNSPKGCHRDKRTQIVYSDDVYKENLVDGF
Kd [5]: 113 nM

B8: NELF-E^244-380 (W345E) (domain or fragment, human, UniProt P18615 244-380, looked up)
chain: GPFRRSDSFPERRAPRKGNTLYVYGEDMTPTLLRGAFSPFGNIIDLSMDPPRNCAFVTYEKMESADQAVAELNGTQVESVQLKVNIARKQPMLDAATGKSVEGSLAVQNSPKGCHRDKRTQIVYSDDVYKENLVDGF
Kd [5]: 1300 nM

Molecule: TKKVDHRAPGAEEDDSELQRAWGALIKEKEQ (domain or fragment, human, UniProt Q53F19 560-590, looked up) [NCBP3^560-620 truncated to residue 590]
Kd [5]: 6000 nM

Molecule: AAUCUAUAAUAG (ssRNA, 5' m7Gppp cap) [capped 12-mer RNA (m7Gppp-AAUCUAUAAUAG)]
binding result [13]: binds
